Experimental data: publication PMC6677139

Key:
Experiment in all cases: purified protein
purified protein [1] = substrate: Nc1nc2nn[nH]c2c(=O)[nH]1; assay type: biochemical, Escherichia coli; settings: 20 mM HEPES pH 7.5, 100 mM NaCl, 37 °C, zinc enzyme
purified protein [2] = substrate: Cn1c(N)nc2nc[nH]c2c1=O; assay type: biochemical, Escherichia coli; settings: 20 mM HEPES pH 7.5, 100 mM NaCl, 37 °C, zinc enzyme
purified protein [3] = substrate: Nc1nc(N)nc(O)n1; assay type: biochemical, Escherichia coli; settings: 20 mM HEPES pH 7.5, 100 mM NaCl, 37 °C, zinc enzyme
purified protein [4] = substrate: Nc1nc2nc[nH]c2c(=O)[nH]1; assay type: biochemical, Escherichia coli; settings: 20 mM HEPES pH 7.5, 100 mM NaCl, 37 °C
purified protein [5] = substrate: Nc1nc2nc[nH]c2c(=O)[nH]1; assay type: biochemical, Saccharomyces cerevisiae; settings: 20 mM HEPES pH 7.5, 100 mM NaCl, 37 °C, zinc enzyme

B1: EcGuaD (Escherichia coli K-12) (protein)
chain: MMSGEHTLKAVRGSFIDVTRTIDNPEEIASALRFIEDGLLLIKQGKVEWFGEWENGKHQIPDTIRVRDYRGKLIVPGFVDTHIHYPQSEMVGAYGEQLLEWLNKHTFPTERRYEDLEYAREMSAFFIKQLLRNGTTTALVFGTVHPQSVDALFEAASHINMRMIAGKVMMDRNAPDYLLDTAESSYHQSKELIERWHKNGRLLYAITPRFAPTSSPEQMAMAQRLKEEYPDTWVHTHLCENKDEIAWVKSLYPDHDGYLDVYHQYGLTGKNCVFAHCVHLEEKEWDRLSETKSSIAFCPTSNLYLGSGLFNLKKAWQKKVKVGMGTDIGAGTTFNMLQTLNEAYKVLQLQGYRLSAYEAFYLATLGGAKSLGLDDLIGNFLPGKEADFVVMEPTATPLQQLRYDNSVSLVDKLFVMMTLGDDRSIYRTYVDGRLVYERN
Km (purified protein [1]): 1000 ± 300 µM
Km (purified protein [2]): 930 ± 260 µM
Km (purified protein [3]): 1200 ± 200 µM
Km (purified protein [4]; zinc enzyme): 210 ± 40 µM

B2: EcGuaD (Escherichia coli K-12; F210A) (protein)
chain: MMSGEHTLKAVRGSFIDVTRTIDNPEEIASALRFIEDGLLLIKQGKVEWFGEWENGKHQIPDTIRVRDYRGKLIVPGFVDTHIHYPQSEMVGAYGEQLLEWLNKHTFPTERRYEDLEYAREMSAFFIKQLLRNGTTTALVFGTVHPQSVDALFEAASHINMRMIAGKVMMDRNAPDYLLDTAESSYHQSKELIERWHKNGRLLYAITPRAAPTSSPEQMAMAQRLKEEYPDTWVHTHLCENKDEIAWVKSLYPDHDGYLDVYHQYGLTGKNCVFAHCVHLEEKEWDRLSETKSSIAFCPTSNLYLGSGLFNLKKAWQKKVKVGMGTDIGAGTTFNMLQTLNEAYKVLQLQGYRLSAYEAFYLATLGGAKSLGLDDLIGNFLPGKEADFVVMEPTATPLQQLRYDNSVSLVDKLFVMMTLGDDRSIYRTYVDGRLVYERN
Km (purified protein [4]): 210 ± 60 µM

B3: EcGuaD (Escherichia coli K-12; W101H) (protein)
chain: MMSGEHTLKAVRGSFIDVTRTIDNPEEIASALRFIEDGLLLIKQGKVEWFGEWENGKHQIPDTIRVRDYRGKLIVPGFVDTHIHYPQSEMVGAYGEQLLEHLNKHTFPTERRYEDLEYAREMSAFFIKQLLRNGTTTALVFGTVHPQSVDALFEAASHINMRMIAGKVMMDRNAPDYLLDTAESSYHQSKELIERWHKNGRLLYAITPRFAPTSSPEQMAMAQRLKEEYPDTWVHTHLCENKDEIAWVKSLYPDHDGYLDVYHQYGLTGKNCVFAHCVHLEEKEWDRLSETKSSIAFCPTSNLYLGSGLFNLKKAWQKKVKVGMGTDIGAGTTFNMLQTLNEAYKVLQLQGYRLSAYEAFYLATLGGAKSLGLDDLIGNFLPGKEADFVVMEPTATPLQQLRYDNSVSLVDKLFVMMTLGDDRSIYRTYVDGRLVYERN
Km (purified protein [4]): 80 ± 10 µM

B4: EcGuaD (Escherichia coli K-12; A386S) (protein)
chain: MMSGEHTLKAVRGSFIDVTRTIDNPEEIASALRFIEDGLLLIKQGKVEWFGEWENGKHQIPDTIRVRDYRGKLIVPGFVDTHIHYPQSEMVGAYGEQLLEWLNKHTFPTERRYEDLEYAREMSAFFIKQLLRNGTTTALVFGTVHPQSVDALFEAASHINMRMIAGKVMMDRNAPDYLLDTAESSYHQSKELIERWHKNGRLLYAITPRFAPTSSPEQMAMAQRLKEEYPDTWVHTHLCENKDEIAWVKSLYPDHDGYLDVYHQYGLTGKNCVFAHCVHLEEKEWDRLSETKSSIAFCPTSNLYLGSGLFNLKKAWQKKVKVGMGTDIGAGTTFNMLQTLNEAYKVLQLQGYRLSAYEAFYLATLGGAKSLGLDDLIGNFLPGKESDFVVMEPTATPLQQLRYDNSVSLVDKLFVMMTLGDDRSIYRTYVDGRLVYERN
Km (purified protein [4]): 140 ± 30 µM

B5: Gud1 (Saccharomyces cerevisiae S288C) (protein)
chain: MTKSDLLFDKFNDKHGKFLVFFGTFVDTPKLGELRIREKTSVGVLNGIIRFVNRNSLDPVKDCLDHDSSLSPEDVTVVDIIGKDKTRNNSFYFPGFVDTHNHVSQYPNVGVFGNSTLLDWLEKYTFPIEAALANENIAREVYNKVISKTLSHGTTTVAYYNTIDLKSTKLLAQLSSLLGQRVLVGKVCMDTNGPEYYIEDTKTSFESTVKVVKYIRETICDPLVNPIVTPRFAPSCSRELMQQLSKLVKDENIHVQTHLSENKEEIQWVQDLFPECESYTDVYDKYGLLTEKTVLAHCIHLTDAEARVIKQRRCGISHCPISNSSLTSGECRVRWLLDQGIKVGLGTDVSAGHSCSILTTGRQAFAVSRHLAMRETDHAKLSVSECLFLATMGGAQVLRMDETLGTFDVGKQFDAQMIDTNAPGSNVDMFHWQLKEKDQMQEQEQEQGQDPYKNPPLLTNEDIIAKWFFNGDDRNTTKVWVAGQQVYQI
Km (purified protein [5]): 61 ± 8 µM
